In PMC4534575, “The RNA Helicase DHX34 Activates NMD by Promoting a Transition from the Surveillance to the Decay-Inducing Complex” (Cell Reports, 2014):

Biological target: T1, T7-DHX34 (wild-type) (human, UniProt Q14147 1-1143)
T1 construct: Human DHX34, wild type; also called T7-tagged DHX34; shRNA-resistant (R) wild-type T7-DHX34; source: HEK293T, transiently transfected, in lysate; also purified on T7 agarose beads
T1 sequence (looked up): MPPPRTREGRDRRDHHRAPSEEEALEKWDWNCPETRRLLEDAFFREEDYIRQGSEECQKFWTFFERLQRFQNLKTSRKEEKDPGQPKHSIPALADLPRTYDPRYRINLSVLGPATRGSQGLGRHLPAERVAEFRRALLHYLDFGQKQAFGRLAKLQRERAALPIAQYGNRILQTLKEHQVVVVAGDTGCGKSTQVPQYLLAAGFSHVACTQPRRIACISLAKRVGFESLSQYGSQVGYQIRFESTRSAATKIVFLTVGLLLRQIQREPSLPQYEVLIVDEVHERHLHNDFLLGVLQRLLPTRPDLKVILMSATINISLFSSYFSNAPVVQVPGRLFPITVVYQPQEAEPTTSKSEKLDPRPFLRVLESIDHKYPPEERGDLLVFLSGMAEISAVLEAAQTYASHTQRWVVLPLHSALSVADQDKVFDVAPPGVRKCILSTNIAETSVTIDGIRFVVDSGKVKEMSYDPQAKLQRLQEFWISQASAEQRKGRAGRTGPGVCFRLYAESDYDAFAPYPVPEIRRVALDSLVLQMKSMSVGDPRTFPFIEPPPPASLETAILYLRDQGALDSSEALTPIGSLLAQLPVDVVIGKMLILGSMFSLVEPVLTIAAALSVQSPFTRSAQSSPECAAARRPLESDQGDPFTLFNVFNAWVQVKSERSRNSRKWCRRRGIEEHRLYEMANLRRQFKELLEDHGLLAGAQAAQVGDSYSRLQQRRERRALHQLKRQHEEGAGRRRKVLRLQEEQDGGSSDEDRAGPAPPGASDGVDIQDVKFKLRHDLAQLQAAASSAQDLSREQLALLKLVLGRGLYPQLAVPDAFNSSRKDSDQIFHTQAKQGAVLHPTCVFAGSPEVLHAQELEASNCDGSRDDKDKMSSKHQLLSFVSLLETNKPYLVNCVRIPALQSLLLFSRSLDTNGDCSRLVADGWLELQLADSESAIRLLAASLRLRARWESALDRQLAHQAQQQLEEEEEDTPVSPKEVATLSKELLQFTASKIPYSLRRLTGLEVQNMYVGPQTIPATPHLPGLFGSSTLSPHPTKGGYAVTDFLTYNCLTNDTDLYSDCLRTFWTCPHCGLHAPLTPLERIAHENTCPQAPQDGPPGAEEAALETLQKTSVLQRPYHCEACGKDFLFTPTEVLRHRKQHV
Experiment: pull-down; purified T7-DHX34 (wild-type or deletion constructs) on T7 agarose beads incubated with recombinant UPF1, UPF2, UPF3b or purified full-length FLAG-UPF1 in buffer D for 2 hr at 4°C
Conditions: both partners purified

binding result: binds
B1: FLAG-UPF1 (wild-type) (natural protein, human, UniProt Q92900-2 1-1118, looked up)
chain: MSVEAYGPSSQTLTFLDTEEAELLGADTQGSEFEFTDFTLPSQTQTPPGGPGGPGGGGAGGPGGAGAGAAAGQLDAQVGPEGILQNGAVDDSVAKTSQLLAELNFEEDEEDTYYTKDLPIHACSYCGIHDPACVVYCNTSKKWFCNGRGNTSGSHIVNHLVRAKCKEVTLHKDGPLGETVLECYNCGCRNVFLLGFIPAKADSVVVLLCRQPCASQSSLKDINWDSSQWQPLIQDRCFLSWLVKIPSEQEQLRARQITAQQINKLEELWKENPSATLEDLEKPGVDEEPQHVLLRYEDAYQYQNIFGPLVKLEADYDKKLKESQTQDNITVRWDLGLNKKRIAYFTLPKTDSDMRLMQGDEICLRYKGDLAPLWKGIGHVIKVPDNYGDEIAIELRSSVGAPVEVTHNFQVDFVWKSTSFDRMQSALKTFAVDETSVSGYIYHKLLGHEVEDVIIKCQLPKRFTAQGLPDLNHSQVYAVKTVLQRPLSLIQGPPGTGKTVTSATIVYHLARQGNGPVLVCAPSNIAVDQLTEKIHQTGLKVVRLCAKSREAIDSPVSFLALHNQIRNMDSMPELQKLQQLKDETGELSSADEKRYRALKRTAERELLMNADVICCTCVGAGDPRLAKMQFRSILIDESTQATEPECMVPVVLGAKQLILVGDHCQLGPVVMCKKAAKAGLSQSLFERLVVLGIRPIRLQVQYRMHPALSAFPSNIFYEGSLQNGVTAADRVKKGFDFQWPQPDKPMFFYVTQGQEEIASSGTSYLNRTEAANVEKITTKLLKAGAKPDQIGIITPYEGQRSYLVQYMQFSGSLHTKLYQEVEIASVDAFQGREKDFIILSCVRANEHQGIGFLNDPRRLNVALTRARYGVIIVGNPKALSKQPLWNHLLNYYKEQKVLVEGPLNNLRESLMQFSKPRKLVNTINPGARFMTTAMYDAREAIIPGSVYDRSSQGRPSSMYFQTHDQIGMISAGPSHVAAMNIPIPFNLVMPPMPPPGYFGQANGPAAGRGTPKGKTGRGGRQKNRFGLPGPSQTNLPNSQASQDVASQPFSQGALTQGYISMSQPSQMSQPGLSQPELSQDSYLGDEFKSQIDVALSQDSTYQGERAYQHGGVTGLSQY
notes: UPF1, human, full length; Plasmid named pcDNA3 x FLAG-UPF1 in the methods; also called purified full-length FLAG-UPF1; source: HEK293T, transiently transfected, in lysate
